According to patent US20250282866A1 (VIGIL NEUROSCIENCE, published 2025):
Residue numbers refer to the chain shown, from its start.

T1: human TREM2 (human, UniProt Q9NZC2 19-174, limits assumed)
T1 construct: also called triggering receptor expressed on myeloid cells 2
T1 sequence: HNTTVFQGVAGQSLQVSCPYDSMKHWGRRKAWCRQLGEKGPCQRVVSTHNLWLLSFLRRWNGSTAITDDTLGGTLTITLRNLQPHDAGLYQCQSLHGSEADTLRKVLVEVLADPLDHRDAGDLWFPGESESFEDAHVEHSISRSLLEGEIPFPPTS

B1: V52 (antibody, V domains shown)
VH: EVQLVQSGAEVKKPGESLKISCKGSGYSFESYWIAWVRQMPGKGLEWMGIIYPGDSDTRYSPSFQGQVTISADKSISTAYLQWSSLKASDTAMYFCARGRTFYYDSSDYFDYWGQGTLVTVSS
VL: DIQMTQSPSSVSASVGDRVTITCRASQGISSWLAWYQQKPGKAPKLLIYAASSLQRGVPSRFSGSGSGTDFTLTISSLQPEDFATYFCQQADRFPRTFGQGTKLEIK
B2: V86 (antibody, V domains shown)
VH: B1 VH with E30G, I34L, Q65E, G99S
VL: B1 VL with L54R, R56N, R93S
B3: V61 (antibody, V domains shown)
VH: B1 VH with E30S, S61N
VL: B1 VL with Q55V, R56N, R93S, F94L
B4: V77 (antibody, V domains shown)
VH: B1 VH with E30T, G99Q
VL: B1 VL with L54R, R56N, R93S
B5: V85 (antibody, V domains shown)
VH: B1 VH with E30R, I50T, G99S
VL: B1 VL with L54R, R56N, R93S
B6: V50 (antibody, V domains shown)
VH: B1 VH with E30G, I50V, G99Q, F110L
VL: B1 VL with L54R, R56N, R93S, F94L
B7: V75 (antibody, V domains shown)
VH: B1 VH with E30T
VL: B1 VL with R56A, R93S, F94Y
B8: V63 (antibody, V domains shown)
VH: B1 VH with E30R, G99S
VL: B1 VL
B9: V60 (antibody, V domains shown)
VH: B1 VH with S28H, E30T, T58V, G99Q, F110S
VL: B1 VL with Q89G, R93S
B10: V49 (antibody, V domains shown)
VH: B1 VH with E30N, I50T, Y60L, G99S
VL: B1 VL with L54R, R56N, R93S, F94Y
B11: V64 (antibody, V domains shown)
VH: B1 VH with E30Q
VL: B1 VL with Q55A, R56N, R93S, F94Y
B12: V88 (antibody, V domains shown)
VH: B1 VH with E30G, G99Q
VL: B1 VL with S53R, R93S, F94S
B13: V62 (antibody, V domains shown)
VH: B1 VH with E30G, S61A, G99Q, D108G
VL: B1 VL with Q89G, R93S
B14: V89 (antibody, V domains shown)
VH: B1 VH with E30T, G99Q
VL: B1 VL with R56N, R93S, F94H
B15: V74 (antibody, V domains shown)
VH: B1 VH with E30A, T58V
VL: B1 VL with R56L, R93S
B16: V65 (antibody, V domains shown)
VH: B1 VH with E30T, G99S
VL: B1 VL with R56N, R93S
B17: V48 (antibody, V domains shown)
VH: B1 VH with E30G, T58V, G99M
VL: B1 VL with R56T, R93S, F94L
B18: V76 (antibody, V domains shown)
VH: B1 VH with E30G, S63E, G99Q, F110S
VL: B1 VL with R56K, T69R, R93S
B19: V53 (antibody, V domains shown)
VH: B1 VH with E30T, S63H, G99Q
VL: B1 VL with R56N, R93S
B20: V73 (antibody, V domains shown)
VH: B1 VH with E30G, S63G
VL: B1 VL with L54R, R56N, R93S, F94Y
B21: V84 (antibody, V domains shown)
VH: B1 VH with S28G, E30T, G99Q, F110S
VL: B1 VL with A50G, R56N, R93S
B22: V87 (antibody, V domains shown)
VH: B1 VH with E30R, T58V, S63D, G99S
VL: B1 VL with R56W, R93S
B23: V72 (antibody, V domains shown)
VH: B1 VH with E30T, A35G
VL: B1 VL with Q55V, R56N, R93S, F94Y
B24: V51 (antibody, V domains shown)
VH: B1 VH with E30T, T58V, Y112N
VL: B1 VL with L54R, R56N, R93S
B25: V31 (antibody, V domains shown)
VH: B1 VH with E30T, D57E, G99Q
VL: B1 VL with R56N, R93S

Target: T1, human TREM2
Assay: 2nd screen 10 nM

| Binding Signal (fold over 6E7 Parental antibody) [fold] | Binder |
| --- | --- |
| 3.09 | B1 |
| 5.02 | B2 |
| 5.22 | B3 |
| 1.38 | B4 |
| 5.37 | B5 |
| 4.16 | B6 |
| 4.52 | B7 |
| 3.71 | B8 |
| 3.63 | B9 |
| 6.58 | B10 |
| 5.48 | B11 |
| 5.3 | B12 |
| 2.89 | B13 |
| 1.46 | B14 |
| 4.01 | B15 |
| 2.75 | B16 |
| 2.54 | B17 |
| 4.93 | B18 |
| 1.17 | B19 |
| 5.44 | B20 |
| 1.62 | B21 |
| 3.93 | B22 |
| 4.01 | B23 |
| 3.18 | B24 |

Target: T1, human TREM2
Assay: 2nd screen 2 nM

| Binding Signal (fold over 6E7 Parental antibody) [fold] | Binder |
| --- | --- |
| 1.78 | B1 |
| 5.17 | B2 |
| 3.63 | B3 |
| 0.83 | B4 |
| 5.41 | B5 |
| 3.39 | B6 |
| 3.74 | B7 |
| 4.91 | B8 |
| 3.35 | B9 |
| 5.02 | B10 |
| 4.88 | B11 |
| 5.57 | B12 |
| 1.87 | B13 |
| 0.94 | B14 |
| 2.54 | B15 |
| 1.29 | B16 |
| 2.3 | B17 |
| 4.34 | B18 |
| 0.66 | B19 |
| 4.17 | B20 |
| 1.45 | B21 |
| 4.86 | B22 |
| 2.5 | B23 |
| 1.83 | B24 |

Target: T1, human TREM2
Assay: 1st screen (110 nM or 10 nM)

| Binding Signal (fold over 6E7 Parental antibody) [fold] | Binder |
| --- | --- |
| 0.61 | B25 |
| 3 | B1 |
| 4.8 | B2 |
| 5.08 | B3 |
| 1.43 | B4 |
| 5.41 | B5 |
| 4.1 | B6 |
| 4.64 | B7 |
| 3.76 | B8 |
| 3.26 | B9 |
| 6.51 | B10 |
| 5.41 | B11 |
| 4.92 | B12 |
| 2.49 | B13 |
| 1.33 | B14 |
| 3.94 | B15 |
| 2.05 | B16 |
| 2.42 | B17 |
| 4.57 | B18 |
| 1.25 | B19 |
| 5.12 | B20 |
| 1.44 | B21 |
| 3.84 | B22 |
| 3.64 | B23 |
| 2.81 | B24 |

Target: T1, human TREM2
Assay: 2nd screen, printed under 10 nM

| Binding Signal (fold over 6E7 Parental antibody) [fold] | Binder |
| --- | --- |
| 0.73 | B25 |
